Test [1] concerns the target T1, phosphorylated light-activated bovine rhodopsin (bovine, UniProt P02699 1-348, phosphorylated by endogenous rhodopsin kinase (GRK1), on average 2.6 phosphates per rhodopsin (sites not determined; the C-terminus has seven phosphorylatable serines and threonines); regenerated …).
T1 construct: rhodopsin, bovine, wild type, in native disk membranes; Native protein; also called P-Rh*
As to the kind of experiment: radioligand binding; direct binding assay: 1 nM [14C]leucine-labelled arrestin-1 (50 fmol) from cell-free translation incubated with 0.3 μg of P-Rh* or Rh* (7.8 pmol) in 50 mM Tris-HCl pH 7.4, 100 mM potassium acetate, 1 mM EDTA, 1 mM DTT, 5 min at 37 °C under room light; bound arrestin separated with rhodopsin-containing membranes by gel filtration on Sepharose CL-2B at 4 °C, scintillation counting; binding in …. The conditions noted are these: one partner purified. Background: SEC sorts molecules by how far they enter the pores of the column.

Test [2] deals with T2, unphosphorylated light-activated bovine rhodopsin (bovine, UniProt P02699 1-348, light-activated).
T2 construct: rhodopsin, bovine, wild type, in native disk membranes; Native protein; source: purified bovine rhodopsin in native disk membranes, unphosphorylated
Described as above. The note with it: one partner purified.

T2 sequence (P02699 whole entry): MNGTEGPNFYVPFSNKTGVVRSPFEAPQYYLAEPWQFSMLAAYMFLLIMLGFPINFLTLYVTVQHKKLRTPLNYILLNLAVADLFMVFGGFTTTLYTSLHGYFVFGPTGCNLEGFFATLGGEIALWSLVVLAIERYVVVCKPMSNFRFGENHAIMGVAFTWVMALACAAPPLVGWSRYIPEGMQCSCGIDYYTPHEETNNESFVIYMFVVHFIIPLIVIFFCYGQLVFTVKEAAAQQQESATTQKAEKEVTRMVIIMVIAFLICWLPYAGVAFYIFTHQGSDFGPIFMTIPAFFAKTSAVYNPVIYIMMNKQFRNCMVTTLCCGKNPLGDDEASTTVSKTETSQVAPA
T1 sequence (P02699 whole entry): as above

B1: bovine arrestin-1 with deletion of Gly292 (natural protein)
chain: MKANKPAPNHVIFKKISRDKSVTIYLGKRDYIDHVERVEPVDGVVLVDPELVKGKRVYVSLTCAFRYGQEDIDVMGLSFRRDLYFSQVQVFPPVGASGATTRLQESLIKKLGANTYPFLLTFPDYLPCSVMLQPAPQDVGKSCGVDFEIKAFATHSTDVEEDKIPKKSSVRLLIRKVQHAPRDMGPQPRAEASWQFFMSDKPLRLAVSLSKEIYYHGEPIPVTVAVTNSTEKTVKKIKVLVEQVTNVVLYSSDYYIKTVAAEEAQEKVPPNSSLTKTLTLVPLLANNRERRIALDGKIKHEDTNLASSTIIKEGIDKTVMGILVSYQIKVKLTVSGLLGELTSSEVATEVPFRLMHPQPEDPDTAKESFQDENFVFEEFARQNLKDAGEYKEEKTDQEAAMDE
modifications: [14C]leucine incorporated
notes: arrestin-1, bovine; bovine residue numbers; source: cell-free translation, radiolabelled; translation mix after centrifugation
Turning to B1, the “increase of binding over WT” value came to 38% in test [1] and 156% in test [2].

The values are drawn from PMC12733242, “The Functional Role of Gate Loop Residues in Arrestin Binding to GPCRs” (International Journal of Molecular Sciences, 2025).
